Holding throughout (assay type): biochemical
A short description of series [1]: PS20 incubated with LAL and SIAE (CAD profile). The note with it: 0.2% PS20 with 10 ppm LAL and 10 ppm SIAE together, after 5 days. As for the experimental part:
To examine the effect of both SIAE and LAL on PS20, 10 ppm of LAL and 10 ppm of SIAE were incubated with a solution comprising 0.2% PS20. Polysorbate in formulated mAbs were detected and identified as shown in Example 1.

The next series is described as follows: PS80 degradation by LAL. The note with it: LAL 10 ppm and 20 ppm, 5 days at 45° C. An excerpt: LAL has an ability to hydrolyze primary and higher order esters.
A short description of series [2]: PS20 degradation by recombinant SIAE (2D-LC-CAD). As for the experimental part: Two-Dimensional Liquid Chromatography-Charged Aerosol detector (CAD)/Mass Spectrometry (MS) Assay to Detect Polysorbate Degradation. Degradation of PS20 and PS80 in CHO cell-free media or formulated antibody were analyzed by two-dimensional HPLC-CAD/MS system. The details of the setup were previously described by Genentech (Yi Li et al., Characterization and Stability Study of Polysorbate 20 in Therapeutic Monoclonal Antibody Formulation by Multidimensional Ultrahigh-Performance Liquid Chromatography-Charged Aerosol Detection-Mass Spectrometry, 86 ANALYTICAL CHEMISTRY 5150-5157 (2014)). […]
The 2D-LC system was set up with Thermo UltiMate 3000 and coupled with Corona Ultra CAD detector. Operating at nitrogen pressure of 75 psi for quantitation. […]
(§1) Peak area of each ester was obtained from the CAD detector and added up to account for intact PS20 or PS80. The remaining percentage of PS20 or PS80 used in this work was calculated by comparing sum of the peak area of monoester eluting between 27.5 min and 33 min at each time point to sum of peak areas at time zero. Relative percent of different order ester or total esters can be calculated similarly.
Hydrolysis of Polysorbate 20 with Sialate O-acetylesterase (SIAE) and Formulated Antibody. […] The influence of pH on the rate of PS20 degradation was determined by evaluating activity at 5.3, 6.0 and 8.0 in acetate, histidine and citrate buffer system.

Series [3] in a line: PS80 degradation by spiked-in recombinant SIAE (2D-LC-CAD). The note with it: 0.1% PS80, SIAE 50 ppm, 5 days at 45° C. As for the experimental part: Two-Dimensional Liquid Chromatography-Charged Aerosol detector (CAD)/Mass Spectrometry (MS) Assay to Detect Polysorbate Degradation. Degradation of PS20 and PS80 in CHO cell-free media or formulated antibody were analyzed by two-dimensional HPLC-CAD/MS system. The details of the setup were previously described by Genentech (Yi Li et al., Characterization and Stability Study of Polysorbate 20 in Therapeutic Monoclonal Antibody Formulation by Multidimensional Ultrahigh-Performance Liquid Chromatography-Charged Aerosol Detection-Mass Spectrometry, 86 ANALYTICAL CHEMISTRY 5150-5157 (2014)). Polysorbates were separated from formulated mAb by using Oasis MAX column (20 mm×2.1 mm, 30 μm, Waters, Milford, Mass., U.S.A.). Initial condition was set at 1% solvent B (0.1% formic acid in acetonitrile) and held for 1 min. It was increased to 20% in 1.5 minutes and dropped back down to 1% in 1.5 minutes. […]
as §1

The nature of series [4]: PS20 degradation by human PLBD2 and CHO PLBD2. Particulars: PLBD2 200 μg/mL, 0.1% PS20, 45° C., 5 days. The procedure:
(§2) Hydrolysis of Polysorbate 20 and PS80 with Putative Phospholipase B-like 2 (PLBD2) and Formulated Antibody. To evaluate the effect of PLBD2 on PS20 and PS80 degradation, 16 μL of 10 mM Histidine buffer pH 6.0 was mixed with 2 μL of 1% PS20 or 1% PS80, followed by adding 2 μL of […] PLBD2 and incubating the sample at 45° C. for 5 days. One aliquot (3 μL) of each sample was diluted twenty-five time by adding 72 μL 10 mM histidine, pH 6.0 and used for LC-CAD analysis.
(§3) Polysorbates degradation by recombinant human PLBD2 and in-house CHO PLBD2 was monitored as outlined in the Material and Methods section. Recombinant human PLBD2 and in-house CHO PLBD2 with concentration at 200 μg/mL were incubated with 0.1% of PS20 and PS80 for 5 days. […] By incubating PS20 with OriGene human PLBD2, a decrease in signal intensity occurred on POE-ester peaks eluting at between 27.5 and 38 minutes. The peaks eluted before 34 minutes were POE monoester containing short fatty acid chain, for example, POE sorbitan monolaurate, POE isosorbide monolaurate, POE sorbitan monomyristate and POE isosorbide monomyristate. […] Instead, because both PLBD2 proteins contain a high level of impurities, it is more likely that the difference in esterase activity originated from some unknown HCP impurities other than from PLBD2 itself.

Series [5] is described as follows: PS80 degradation by human PLBD2 and CHO PLBD2. Particulars: PLBD2 200 μg/mL, 0.1% PS80, 45° C., 5 days; peaks eluting between 30 and 35 minutes. The procedure:
as §2, §3

B1: LAL: lysosomal acid lipase encoded by the LIPA gene; recombinant, overexpressed in CHO cell (protein, UniProt P38571 77-399, looked up)
Lysosomal acid …: GPKPVVFLQHGLLADSSNWVTNLANSSLGFILADAGFDVWMGNSRGNTWSRKHKTLSVSQDEFWAFSYDEMAKYDLPASINFILNKTGQEQVYYVGHSQGTTIGFIAFSQIPELAKRIKMFFALGPVASVAFCTSPMAKLGRLPDHLIKDLFGDKEFLPQSAFLKWLGTHVCTHVILKELCGNLCFLLCGFNERNLNMSRVDVYTTHSPAGTSVQNMLHWSQAVKFQKFQAFDWGSSAKNYFHYNQSYPPTYNVKDMLVPTAVWSGGHDWLADVYDVNILLTQITNLVFHESIPEWEHLDFIWGLDAPWRLYNKIINLMRKYQ
Regarding B1, in series [1], the “PS20 ester species degradation” value is listed as “all ester species degraded”. Moreover, in “PS80 degradation by LAL”, the PS80 degradation entry is recorded as “significant degradation of monoesters only”.

B2: SIAE: recombinant sialate O-acetylesterase, host cell protein overexpressed and purified in CHO (protein)
chain: MVSLGSVFGLLLLLIIVRASRSAGIDFRFGSYIDNYMVLQKEPSGAVIWGFGTPGATVTVTLCQGQNTFKKKVTTVKAHSNTWVVVLDPMKPGGPYEVMAKQTFGITNVTLRIHDILFGDVWLCSGQSNMKMTVLQIFNASKELAVAAAYQSVRIFSASLVQAEEELEDLDKVDLSWSRPTAGNLGNGNYTYMSAVCWLFGRYLYDNLQYPIGLVSSSWGGTPIEAWSSKRALKSCGVPNTSNERILQTTRSECKSEGSLCPLGSFTLPPSVTGPATHSVLWNAMIHPLQKMTLKGVIWYQGESNEDLNRDLYSCMFPALIDDWRQTFHDGSQKQTERFFPFGFVQLSSYAETNTSDYRFPEIRWHQTADFGFVPNLKMPNTFMAVAMDLCDLNSPFGSIHPRDKQTVAYRLHLGARALAYGEKNLAFQGPLPKKIELLAHSRLLSLTYDQKIQVHRQDNKSFEISCCSDRLCKWLPVSVNSFSTKTLILGISACRGTVVDVRYAWTTWPCDYKQCAVYHPSNTLPAPPFTAPITYQAPRFRASDSSTQE
B2: the “PS20 ester species degradation” value in series [1] was “all ester species degraded”. The PS20 degradation result in series [2] (0.1% PS20, SIAE 2.5 ppm, 45° C., 10 mM Histidine pH 6, 10-day incubation) is recorded as “Significant PS20 degradation”. For the same molecule, the “pH effect on PS20 degradation by SIAE” value in series [2] (SIAE directly incubated with PS20 in buffers pH 8.0, 6.0, 5.3) was “maximum degradation at pH 6.0”. Besides, the PS80 degradation entry in series [3] was “did not show any degradation”.

B3: human PLBD2: recombinant human putative phospholipase B-like 2 purchased from Origene (protein)
chain: IPAPGGRWARDGQVPPASRSRSVLLDVSAGQLLMVDGRHPDAVAWANLTNAIRETGWAFLELGTSGQYNDSLQAYAAGVVEAAVSEELIYMHWMNTVVNYCGPFEYEVGYCERLKSFLEANLEWMQEEMESNPDSPYWHQVRLTLLQLKGLEDSYEGRVSFPAGKFTIKPLGFLLLQLSGDLEDLELALNKTKIKPSLGSGSCSALIKLLPGQSDLLVAHNTWNNYQHMLRVIKKYWLQFREGPWGDYPLVPGNKLVFSSYPGTIFSCDDFYILGSGLVTLETTIGNKNPALWKYVRPRGCVLEWVRNIVANRLASDGATWADIFKRFNSGTYNNQWMIVDYKAFIPGGPSPGSRVLTILEQIPGMVVVADKTSELYQKTYWASYNIPSFETVFNASGLQALVAQYGDWFSYDGSPRAQIFRRNQSLVQDMDSMVRLMRYNDFLHDPLSLCKACNPQPNGENAISARSDLNPANGSYPFQALRQRSHGGIDVKVTSMSLARILSLLAASGPTWDQVPPFQWSTSPFSGLLHMGQPDLWKFAPVKVSWD
Take B3: the PS20 degradation result in series [4] was “Significant PS20 degradation”. Further, the PS80 degradation result in series [5] is recorded as “significant degradation”.
